From paper PMC2064240 (The Journal of Cell Biology, 2006) come the findings set out here.

In this experiment the target is T1, GST-SV343-571 (bovine, UniProt O46385-2 343-571).
T1 sequence (looked up): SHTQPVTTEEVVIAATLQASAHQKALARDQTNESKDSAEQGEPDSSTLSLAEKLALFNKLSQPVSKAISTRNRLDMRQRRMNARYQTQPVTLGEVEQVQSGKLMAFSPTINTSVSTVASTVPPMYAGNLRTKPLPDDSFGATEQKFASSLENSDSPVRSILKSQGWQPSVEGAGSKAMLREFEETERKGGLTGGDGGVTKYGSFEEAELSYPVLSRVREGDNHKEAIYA
As to the kind of experiment: pull-down.

B1: 6×His-tagged TRIP6 LIM domains (aa 265-476) (domain or fragment, human (HeLa cell cDNA library), UniProt Q15654-1 265-476, looked up)
chain: HDMNHPPSGEYFGQCGGCGEDVVGDGAGVVALDRVFHVGCFVCSTCRAQLRGQHFYAVERRAYCEGCYVATLEKCATCSQPILDRILRAMGKAYHPGCFTCVVCHRGLDGIPFTVDATSQIHCIEDFHRKFAPRCSVCGGAIMPEPGQEETVRIVALDRSFHIGCYKCEECGLLLSSEGECQGCYPLDGHILCKACSAWRIQELSATVTTDC
On to B1, for which the binding result is recorded as “binds”.
